Results from IntAct's records for PubMed 19407143.

B1: Protein phosphatase 2C 56 (Arabidopsis thaliana (Mouse-ear cress)), P49597 (parent)
chain: MEEVSPAIAGPFRPFSETQMDFTGIRLGKGYCNNQYSNQDSENGDLMVSLPETSSCSVSGSHGSESRKVLISRINSPNLNMKESAAADIVVVDISAGDEINGSDITSEKKMISRTESRSLFEFKSVPLYGFTSICGRRPEMEDAVSTIPRFLQSSSGSMLDGRFDPQSAAHFFGVYDGHGGSQVANYCRERMHLALAEEIAKEKPMLCDGDTWLEKWKKALFNSFLRVDSEIESVAPETVGSTSVVAVVFPSHIFVANCGDSRAVLCRGKTALPLSVDHKPDREDEAARIEAAGGKVIQWNGARVFGVLAMSRSIGDRYLKPSIIPDPEVTAVKRVKEDDCLILASDGVWDVMTDEEACEMARKRILLWHKKNAVAGDASLLADERRKEGKDPAAMSAAEYLSKLAIQRGSKDNISVVVVDLKPRRKLKSKPLN
partner: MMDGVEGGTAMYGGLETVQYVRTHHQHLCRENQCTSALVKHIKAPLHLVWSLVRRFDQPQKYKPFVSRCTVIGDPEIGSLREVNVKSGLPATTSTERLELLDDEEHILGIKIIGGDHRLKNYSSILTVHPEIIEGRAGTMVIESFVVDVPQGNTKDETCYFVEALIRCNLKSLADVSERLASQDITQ
B2: Protein phosphatase 2C 77 (Arabidopsis thaliana (Mouse-ear cress)), O04719 (parent)
chain: MDEVSPAVAVPFRPFTDPHAGLRGYCNGESRVTLPESSCSGDGAMKDSSFEINTRQDSLTSSSSAMAGVDISAGDEINGSDEFDPRSMNQSEKKVLSRTESRSLFEFKCVPLYGVTSICGRRPEMEDSVSTIPRFLQVSSSSLLDGRVTNGFNPHLSAHFFGVYDGHGGSQVANYCRERMHLALTEEIVKEKPEFCDGDTWQEKWKKALFNSFMRVDSEIETVAHAPETVGSTSVVAVVFPTHIFVANCGDSRAVLCRGKTPLALSVDHKPDRDDEAARIEAAGGKVIRWNGARVFGVLAMSRSIGDRYLKPSVIPDPEVTSVRRVKEDDCLILASDGLWDVMTNEEVCDLARKRILLWHKKNAMAGEALLPAEKRGEGKDPAAMSAAEYLSKMALQKGSKDNISVVVVDLKGIRKFKSKSLN
partner: B1 partner

Variants of: B1
Conditions: with pyl9_arath PYL9, Q84MC7

| effect of a mutation on the interaction | Variant |
| --- | --- |
| decreasing interaction | MEEVSPAIAGPFRPFSETQMDFTGIRLGKGYCNNQYSNQDSENGDLMVSLPETSSCSVSGSHGSESRKVLISRINSPNLNMKESAAADIVVVDISAGDEINGSDITSEKKMISRTESRSLFEFKSVPLYGFTSICGRRPEMEDAVSTIPRFLQSSSGSMLDGRFDPQSAAHFFGVYDGHDGSQVANYCRERMHLALAEEIAKEKPMLCDGDTWLEKWKKALFNSFLRVDSEIESVAPETVGSTSVVAVVFPSHIFVANCGDSRAVLCRGKTALPLSVDHKPDREDEAARIEAAGGKVIQWNGARVFGVLAMSRSIGDRYLKPSIIPDPEVTAVKRVKEDDCLILASDGVWDVMTDEEACEMARKRILLWHKKNAVAGDASLLADERRKEGKDPAAMSAAEYLSKLAIQRGSKDNISVVVVDLKPRRKLKSKPLN [G180D] |

Variants of: B2
Conditions: with pyl9_arath PYL9, Q84MC7

| effect of a mutation on the interaction | Variant |
| --- | --- |
| disrupting interaction | MDEVSPAVAVPFRPFTDPHAGLRGYCNGESRVTLPESSCSGDGAMKDSSFEINTRQDSLTSSSSAMAGVDISAGDEINGSDEFDPRSMNQSEKKVLSRTESRSLFEFKCVPLYGVTSICGRRPEMEDSVSTIPRFLQVSSSSLLDGRVTNGFNPHLSAHFFGVYDGHDGSQVANYCRERMHLALTEEIVKEKPEFCDGDTWQEKWKKALFNSFMRVDSEIETVAHAPETVGSTSVVAVVFPTHIFVANCGDSRAVLCRGKTPLALSVDHKPDRDDEAARIEAAGGKVIRWNGARVFGVLAMSRSIGDRYLKPSVIPDPEVTSVRRVKEDDCLILASDGLWDVMTNEEVCDLARKRILLWHKKNAMAGEALLPAEKRGEGKDPAAMSAAEYLSKMALQKGSKDNISVVVVDLKGIRKFKSKSLN [G168D] |
